Experimental findings from paper PMC4069162 are described below.

Holding throughout (assay): cross-linking; in vivo cross-linking with DSP in S. enterica ATCC14028SΔacrABΔmdsABC::Cm5ΔtolC::Tn10 cells coexpressing MdsA-flag, MdsB-myc and MdsC-hexahistidine (grown to OD600 = 0.8); MdsC-His isolated on a Ni-NTA resin column, cross-linked MdsA detected by anti-flag immunoblot
Background: Immunoblotting shows a protein as a band on a membrane.

The target of assay [1] is MdsC-L441R with a c-terminal hexahistidine tag (Salmonella enterica serovar Typhimurium ATCC14028S).
Assay [2] deals with MdsC-G220A with a c-terminal hexahistidine tag (Salmonella enterica serovar Typhimurium ATCC14028S).
Assay [3] deals with MdsC-G433A with a c-terminal hexahistidine tag (Salmonella enterica serovar Typhimurium ATCC14028S).
For assay [4], the target named is MdsC with a c-terminal hexahistidine tag (wild type) (Salmonella enterica serovar Typhimurium ATCC14028S).

With “MdsA with a c-terminal flag tag (wild type) (from UniProt A0A4P7XPD4 1-408) (natural protein)”, the MdsA crosslinked, percent of that with wild-type MdsC in assay [1] came to 16%; in assay [2], 20%; in assay [3] it was 39%.
“MdsA-S146D with a c-terminal flag tag (from UniProt A0A4P7XPD4 1-408) (natural protein)” had a crosslinking to MdsC, percent of wild type in assay [4] of 16%.
